Source: publication PMC10090080

How the values were obtained:
[1] = target: portal protein pUL104 (human cytomegalovirus strain AD169); test: cryo-EM structure
[2] = target: pUL93 (human cytomegalovirus strain AD169); test: cryo-EM structure

Substance | stoichiometry N [1] | stoichiometry N [2]
portal protein pUL104 (natural protein) | 12 | –
pUL77 (natural protein) | – | 2
